{"source": "the DeepSol protein solubility set"}
{"assay": "soluble on expression in E. coli; label from the status in PepcDB or PDB records"}
{"sequence": "MSLDNKNKSEVQAQETVQVSYKEKNRESSLASALDVLSRFGGFNFLESTVDGVQNLNPERKARKKIFLTDEQKQEEREVLKNKIDMWIDLLNSSSAVTEMIATSKAKSEAAASHLAKSQLVAVQSVRDMEQAYRGVMLFYKNTEADKVNNVTIVNASKEQLTDLDNPRFIDFVARELKQNYDKLDLRQNYSLLAIPGYLGSNKVLEKWAKIAYENKVMLYTDFADLDKPEDVVELFSSSNMASGEAFKSNTCMTCNWLVGRAGYREIGEEEDLHVSPSIALMGKVYTTLMSQVTAGKKYGGINEIDAVVFPLKKSEISQLEKMGLIPMVNEYGKVMAFSAKTLFNGDNLGLQTYSVVRVFDYITKVLFDFLNRRSFENWSSKTERDLRGQIVQYLDSVQGADRLIEKFKIIRFEQDQKQKDRIYLDIHMTPFFPAKSFVIKLDGTKGDDGTNWNTNYEEGHHHHHH", "soluble on expression in E. coli": "not soluble"}
{"sequence": "MSLDPDAGVIFARTAAGAAVALGLLKCGRIWLCPVCSGQDPARPSEEITEAVVSWLQQGGWAYLVTFTARHTAADRLSDLMDALQGTRADAETGTKRRPGAYQRLITGAAWAGDKRRKSNQEGIRGRIGYIGMIRATEVTVGEGAGWHPHIHAIVLVGGRTEGQRGDKRITGTFTPSEDALTEWEDRWRRSGPATLARSTPGFRPPTGARSPGATAGARATASTSSSSVRSGRQRPGRVHRQDAGRQEPGPGAGTRRPQGRPPGQHDVLRTPSRIGDLMGGVPEEEAAGHGSLAWGLDRWAEYETAVSGAGHRVDPLPAPAPGPDRRRHRGRRHGRPVPDRAARRFRDGVQIWDRAWKGLVGRSLDLAVVEAVEGREISMDALGELVQSAGQSRAFLRVLTPQEVTELYDELLRTLARRREQAAERRAAEAAEAEPTTREGHHHHHH", "soluble on expression in E. coli": "not soluble"}
{"sequence": "MSLDPHAPLAERLRPRTLDDVVGQSHLLGPGKPLRLAFDSGKLHSMILWGPPGVGKTTLARLTAQAFGADFIAISAVLSGVKDIREAVERARMNQKLGRATILFVDEVHRFNKSQQDAFLPHVESGLFTFIGATTENPSFEVVGALLSRAQVYVLKSLTPDELGRLMQRALQELPSLKLADGVDKLLAAYADGDARKLLNLLEQLDTAARTAQVEEADAAFVENALAQSLRRFDKGGEAFYDQISALHKSVRGSDPDASLYWLVRMLDGGADPRYLGRRLVRMASEDIGMADPRALRLALDAVETYERLGSPEGELALAEACLYLACAPKSNAAYVAYNAARAFVEANPSNDVPIHLRNAPTKLMKELGYGRAYRYAHDEPEAYAAGERYFPDDIAEQQFYEPTPRGLEGKIAEKLAHLRELDDEAEKEGHHHHHH", "soluble on expression in E. coli": "soluble"}
{"sequence": "MSLDRELKNLHLNISQLAALSGAHRQTVAARVKNISPAGGHESNLKLYRLTDILAELMKAPLPVDNEEMDPHARKAWYQSERDRLKFEQETGQLVPVSDVRRSFSVVVKAIVQVLETWPDRLERDRGWTASQLNEVQIVVDEIRDTLEKAVIDCCDEADEGHHHHHH", "soluble on expression in E. coli": "soluble"}
{"sequence": "MSLDSIKVKNEYEKLTGSDSVVRRGMFNVYQKKNDYYFEIPSTLLERDMLVVNKLQRVPAELNEAGVNRGTNYENQMIRFELDKSANKLLIRQSRPLPISPSEDAISQSVKDNYISPLIAGFKVEAYNNDSTSILIKVNDIYDGTETSINNVFTNINLGTSAIKNLSRILSIKSFDNNVVATSELTTRVTEGTTTIYVTVEVSSSILLLPEVPMTGRLDNPRVGYFTNPLTNFSDGQQRVNKKQFITRWRLEPRPEDRAAYLRGELVEPRKPIVFYIENSTPYRWRKYIKQGIEDWQVAFERAGFKNAIIAKDITEDMEVDMDDVNYSVLTYAASTKANAMGPSILDPRSGEILEADIMWWHNVLSMLQEWITVQTGVVRPEARGVALPDSLMGDAMRFVACHEVGHSLGLRHNMMGSWAFPTDSLRSKTFTDRMNSTSSSIMDYARFNYVAQPGDGIKALSPHIGPYDMFAIEYGYRWYGKQTPEEEKELLQDFLAKHTDRLYKYSEAQDPRDAVDPRAQNEDLGDDPIRSSQYGIANLKCIVPQIIQWTTTGEKGQTYEEASRLYYAVINQWNNYLYHVMANIGGIYIENTTVGDGEKTYTFVEKEKQQAALRFLLDEVLCYPKWLFDPEIAQYTYLLKNTPLGVVENAPTQVLKNAQAYVFWDLLSNNRLMRMLENESVNGKKAFTAVELMDGLHKSIFAVTERGGLPDVMTRNLQKGFVDALITAAAESEGVKVNKKLIDNHFLFDLQTPICSCDDHVHRSAHTDRMGARRELNFYGSQINRISDAISVKRGELLRIKDLLQSRLGTSDVATKYHYKDLILRINTALGISKEGHHHHHH", "soluble on expression in E. coli": "soluble"}
{"sequence": "MSLDSIVNAYEESDVLDPRTDAERPSVPPVIKPVDLGPVHVETPVVLSPMAGVTNWPFRVICESYGPDGLYVAEMITARALVARNPKALRLCRFAPSEKIRSLQLYGVNPSIVEQAAKIVIDENMADHVDLNFGCPVPKVTRRGGGSALPWKTDLFREIIQRVVKVCDAANVPVTAKIRVGIDHEHETFLEAGHIAQEEGCKAVTLHARTTAEYYGGHSDWSRIGELVSELDIPVFGNGDIWGANDALAMVAETGCAGVAIGRGCQGRPWLFADIKNAFAGSDERVDPTLGDVCRVIERHAELLTEFYDEGHHHHHH", "soluble on expression in E. coli": "not soluble"}
{"sequence": "MSLDVSEGGVTVSVPTASGGGEGAADDVFFNATQELNRDLTVATLAAFREREPRAASYLDAMTASGIRGVRAANAGWDVTMADVDADAVELATSNLARNGLDGEVVARDANSLLHDHDRVLDVVDIDPFGSPMPFADAAFANARNLVCVTATDTAPLCGAHFESGVRKYSATPRNTNYHAEMGLRILLGALARTAARYDVGVTPILSHVSDHYVRTYLELDHRATDANAAVEQVGHVYHCQQCLSRDHEYGLVAAPRAECPRCGGHQVLTAGPLWLGPAHEEAFAASVREQLTREMGEASQAFHLLQTIEGELHEPTHYDQHRLYSQWGEPAVGMAEFLDQLRDAGLRASRTHFGGTTFKTDGGLAEVEAAVLEGHHHHHH", "soluble on expression in E. coli": "not soluble"}
{"sequence": "MSLDVTNRIERALTEALNQADMAGCPPRLAAAMRSAVFPRGARVRPRLCHSVALACGEDNPGITEAAGAALELMHCASLIHDDLPCFDGADLRRGRPSVHKAFGEPLAVLAGDAMIVLAFQTIARAEGQADRLLKLTQIIGGAVGVPFGIVAGQAWECETEINLAHYHRSKTGALFVAATAMGAASAGSDPEPWRMVGEKIGEAYQVADDLRDAAADVEEIGKPVGQDVAHDRPSAVREMGIDGAIYHLKSLVRGAVEAMPECTNGNELRSLIMSEATRLVPAEGHHHHHH", "soluble on expression in E. coli": "soluble"}
{"sequence": "MSLDWQTLLTRERLGKPVHSNDELGRSAFHKDHDRIIFSGAFRRLGRKTQVHPVSSNDHIHTRLTHSLEVACVGRSLGMRVGEILREELPEWCDPSDLGVIVQSACLAHDIGNPPFGHSGEDAIRNWFQQAAGRGWLDEMSDAERSDFLHFEGNAQGFRVLTQLEYHQFDGGTRLTYATLGTYLKYPWTSRHAEALGYKKHKFGCYQSELPLLEQITHKLGMPQLDDERWARHPLVYLMEAADDICYGLIDLEDGLEMELLEYSEVEALLLGLVGDDLPDTYRQLGPRDSRRRKLAILRGKAIEHLTNAAARAFVDQQQALLAGQLAGDLVEHMHGPAKLCVQRAKAIAREKIFQDKRKTLHEIGAYTTLEILLNAFCGAALEQYGGHTPSFKNRRILDLLGRNAPDPQWPLYRAFLQVIDFIAGMTDSYATEMAREMTGRSSEGHHHHHH", "soluble on expression in E. coli": "soluble"}
{"sequence": "MSLDYEIFNPYEGLIFDMDGTLIDTMPVHAQAWTMVGKKFGYEFDFQIMYNFGGATVRTIAGEMMKAANMPLDRIEDVLAAKRELSYQLIPTQSKLLPTFEIVKSFHQKKPIALGSGSHRKIIDMLMDKLAIAPYFNAIVSADDVKEHKPHPETFLRCAELIQANPSRCIVFEDADLGVQAGLSAGMDVFDVRTREIISPREGHHHHHH", "soluble on expression in E. coli": "soluble"}
{"sequence": "MSLDYNNITEALQAFRTEKAYRHAPLRSCFFDMDGVLFDSMPAHARSWVEAAGECGIAAEPLDFYRWEGQKGSDTIKILFERGYGRLPTEKEIADMYGRKSQLFALYNSGNVIDDAPALVSDVCDRGLRIMLVTGSSQTDILQRLQRSYGDNFSPANMVTGADVHRGKPHPEPYLKALECVGMSPSEAFVVENAPLGVRAAVDAGIFTIAVNTGCLPDADLWDAGASLVLPSMAVLRSLLGELLTESLSSSAEGHHHHHH", "soluble on expression in E. coli": "soluble"}
{"sequence": "MSLEAKEVYFEQRGDIGYIVINNAPENMITLSLLEEFSNIVENSIINSKIKGIIITGKGRHFSSGTDIGKLKQTILKTAYIKENNSLVECSEFKRYIDALSSLYSINIPVISAINGLCIGSGFEIALHSHIRICSKGSIVGSPESTFGLMPGLGGISRYVQLCGLGKALELVLSGDLLSVNEALEIGIIDKIVKKNEISDYCNRLMEYILKNEMIYSKSKINSYIKLCDEGHHHHHH", "soluble on expression in E. coli": "soluble"}
{"sequence": "MSLEALGVAVVGFGWMGRVHTQAYARVRHHYPHLALRPELVTVAEEVPGRAEEAAAQFGFASTTRDWREVAADPRVHAVSITAPNFLHREIAVAMAGAGKHIWVEKPVGLSSDDARAVADAVSGAGVQGAVGFNYRNAPAVETARRLIAAGEIGTVTHARLRFFSDYAAHPEGALTWRYERERGGSGVLGDLASHGADLARFLLGDIASLTADTAVFVPERARPASATAGHARATGGEPGPVENEDYVSCLLRFASGARGVLEACRVSVGEQNNYGFEVHGTTGAVFWDFRRMNELRVSRGTEYQDQPVSTVYVGPGDGEFAAFQPGAANAMGYDDLKVVEAHRFLRSIAEGTPYGATLSDAVHSAAVLEAMSRSAERGTWVSPGEGHHHHHH", "soluble on expression in E. coli": "soluble"}
{"sequence": "MSLEEQLYKRDPVSGAILVPMTVNDQPIEKNGDKMPLKFKLGPLSYQNMAFITAKDKYKLYPVRIPRLDTSKEFSAYVSGLFEIYRDLGDDRVFNVPTIGVVNSNFAKEHNATVNLAMEAILNELEVFIGRVKDQDGRVNRFYELEESLTVLNCLRTMYFILDGQDVEENRSEFIESLLNWINRSDGEPDEEYIEQVFSVKDSTAGKKVFETQYFWKLLNQLVLRGLLSQAIGCIERSDLLPYLSDTCAVSFDAVSDSIELLKQYPKDSSSTFREWKNLVLKLSQAFGSSATDISGELRDYIEDFLLVIGGNQRKILQYSRTWYESFCGFLLYYIPSLELSAEYLQMSLEANVVDITNDWEQPCVDIISGKIHSILPVMESLDSCTAAFTAMICEAKGLIENIFEGEKNSDDYSNEDNEMLEDLFSYRNGMASYMLNSFAFELCSLGDKELWPVAIGLIALSATGTRSAKKMVIAELLPHYPFVTNDDIEWMLSICVEWRLPEIAKEIYTTLGNQMLSAHNIIESIANFSRAGKYELVKSYSWLLFEASCMEGQKLDDPVLNAIVSKNSPAEDDVIIPQDILDCVVTNSMRQTLAPYAVLSQFYELRDREDWGQALRLLLLLIEFPYLPKHYLVLLVAKFLYPIFLLDDKKLMDEDSVATVIEVIETKWDDADEKSSNLYETIIEADKSEGHHHHHH", "soluble on expression in E. coli": "not soluble"}
{"sequence": "MSLEESAVPGWVLELLREAGYKSLLPIQEKAFPIIYRGLNALVVAPTGSGKTEAALAPLLARLRNGRVASGGGVKVVYVTPLRALNRDLEGRVERLAGLFGYTVQVRHGDTVQSSRRRFLERPPDIVITTPESLALLLTVKRAKEVLKQARAVVVDEIHELMESKRGVELSLNLEKLELMAGRRLQRIGLSATVSRHSLYRAASLLGAGRHVSMVLDTSPKEYDVRVVVVGDEGRFWENSVKAIAELVKGEGGSVLIFANTRSTVETLAFALSRELGEEVPAHHGSLSRHVRERVERDFKEGRVKAIVATSSLELGIDVGRVALVVQFLSPRQVTAMVQRAGRSGHRFGERSRAVIVTIDNVFEVLESHVIAFRAMKGDLEDISIPKKPYDALAHFMAGAAIDSEPPTLEGVYKLAVSTAPYEDLKMEEVEEIARVLSDVRVIRLGPGGKLGRSSRTYSYFYRVSMIPDEKTFKVHDVVSGRDVGEVGERFIQLRLMKASDPREGHHHHHH", "soluble on expression in E. coli": "not soluble"}
